Where a chain is given by its changes, count along the chain named. Names may count otherwise.
B1: F159L (protein)
chain: MQLRNPELHLGCALALRFLALVSWDIPGARALDNGLARTPTMGWLHWERFMCNLDCQEEPDSCISEKLFMEMAELMVSEGWKDAGYEYLCIDDCWMAPQRDSEGRLQADPQRFPHGIRQLANYVHSKGLKLGIYADVGNKTCAGFPGSFGYYDIDAQTLADWGVDLLKFDGCYCDSLENLADGYKHMSLALNRTGRSIVYSCEWPLYMWPFQKPNYTEIRQYCNHWRNFADIDDSWKSIKSILDWTSFNQERIVDVAGPGGWNDPDMLVIGNFGLSWNQQVTQMALWAIMAAPLFMSNDLRHISPQAKALLQDKDVIAINQDPLGKQGYQLRQGDNFEVWERPLSGLAWAVAMINRQEIGGPRSYTIAVASLGKGVACNPACFITQLLPVKRKLGFYEWTSRLRSHINPTGTVLLQLENTMQMSLKDLL
B2: A160T (protein)
chain: B1 chain with L159F, A160T
B3: A160V (protein)
chain: B1 chain with L159F, A160V
B4: F169C (protein)
chain: B1 chain with L159F, F169C
B5: V164I (protein)
chain: B1 chain with L159F, V164I
B6: W162S (protein)
chain: B1 chain with L159F, W162S
B7: L166M (protein)
chain: B1 chain with L159F, L166M
B8: D161Y (protein)
chain: B1 chain with L159F, D161Y
B9: D161H (protein)
chain: B1 chain with L159F, D161H
B10: D165E (protein)
chain: B1 chain with L159F, D165E
B11: A160G (protein)
chain: B1 chain with L159F, A160G
B12: F159Y (protein)
chain: B1 chain with L159Y
B13: D161N (protein)
chain: B1 chain with L159F, D161N
B14: A160S (protein)
chain: B1 chain with L159F, A160S
B15: D165A (protein)
chain: B1 chain with L159F, D165A
B16: D161V (protein)
chain: B1 chain with L159F, D161V
B17: L167I (protein)
chain: B1 chain with L159F, L167I
B18: F159V (protein)
chain: B1 chain with L159V
B19: L166Q (protein)
chain: B1 chain with L159F, L166Q
B20: V164A (protein)
chain: B1 chain with L159F, V164A
B21: V164L (protein)
chain: B1 chain with L159F, V164L

These molecules were tested on mutant form of α-Gal A expressed in HEK-293 cells (assay: HEK assay (GLP HEK / Migalastat Amenability Assay): α-Gal A activity in lysates of transiently transfected HEK-293 cells incubated with or without 10 μM migalastat). Conditions: 10 μM migalastat versus baseline.
Format: cell-based, human
Summary of the method: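 HEK-293 cells transiently transfected with mutant α-Gal A and incubated with or without 10 μM migalastat; lysate activity given as nmol free 4-MU released per mg protein per hour. Values are mean±SEM.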

Molecule	Absolute increase (% WT)
B1	28.0
B2	31.3
B3	21.9
B4	26.9
B5	41.9
B6	9.2
B7	48.8
B8	32.1
B9	15.5
B10	18.4
B11	19.0
B12	22.4
B13	14.1
B14	29.9
B15	4.4
B16	16.0
B17	26.1
B18	29.8
B19	29.2
B20	7.5
B21	35.0

Same assay, conditions: 10 μM migalastat α-Gal A activity relative to baseline

Molecule	Relative increase
B1	1.4
B2	1.4
B3	1.4
B4	2.4
B5	1.9
B6	4.6
B7	1.8
B8	1.9
B9	1.2
B10	4.4
B11	1.4
B12	3.9
B13	1.2
B14	1.5
B15	5.2
B16	1.4
B17	1.6
B18	1.6
B19	2.6
B20	1.3
B21	1.7

Same assay, conditions: 10 μM migalastat, 5 days; percentage of baseline wild-type α-Gal A activity; mean ± SEM

Molecule	10 μM migalastat α-Gal A activity (% WT)
B1	103.6 ± 10.7
B2	90.9 ± 8.1
B3	66 ± 4.8
B4	44.9 ± 2.3
B5	87.1 ± 8.2
B6	11.8 ± 0.8
B7	104 ± 7.3
B8	63.1 ± 4.6
B9	77 ± 3.8
B10	23.8 ± 1.6
B11	54.1 ± 5.3
B12	30.1 ± 1.7
B13	68.7 ± 4.9
B14	85.9 ± 6.3
B15	5.4 ± 0.3
B16	59.7 ± 2.7
B17	72.9 ± 2.7
B18	80.7 ± 4.8
B19	47.6 ± 1.9
B20	32 ± 2.2
B21	86.2 ± 5.2

Same assay, conditions: absence of migalastat; percentage of baseline wild-type α-Gal A activity; mean ± SEM

Molecule	Baseline α-Gal A activity (% WT)
B1	75.6 ± 8.4
B2	59.6 ± 3.5
B3	44.1 ± 2.7
B4	18.1 ± 2
B5	45.1 ± 3.4
B6	2.6 ± 0.2
B7	55.2 ± 4.5
B8	31 ± 2.5
B9	61.5 ± 2.9
B10	5.4 ± 0.2
B11	35.1 ± 3.7
B12	7.7 ± 0.7
B13	54.5 ± 4.3
B14	56 ± 3.1
B15	1 ± 0.1
B16	43.7 ± 1.7
B17	46.8 ± 2.2
B18	50.9 ± 2.9
B19	18.4 ± 1.2
B20	24.5 ± 1.8
B21	51.2 ± 3.8

Same assay, conditions: lysates of HEK-293 cells transfected with the mutant form, incubated 5 days in the absence of migalastat; mean ± SEM

Molecule	Baseline α-Gal A activity [nmol/mg/h]
B1	22840 ± 1245
B2	20193 ± 1713
B3	15511 ± 1847
B4	6861 ± 977
B5	12164 ± 1271
B6	653 ± 38
B7	15603 ± 1630
B8	11060 ± 1571
B9	21949 ± 2587
B10	1442 ± 43
B11	13634 ± 2705
B12	2573 ± 301
B13	19553 ± 2838
B14	18308 ± 685
B15	271 ± 30
B16	13728 ± 1344
B17	14763 ± 942
B18	16474 ± 1048
B19	5656 ± 325
B20	6491 ± 691
B21	22055 ± 1619

Same assay, conditions: lysates of HEK-293 cells transfected with the mutant form, incubated 5 days with 10 μM migalastat; mean ± SEM

Molecule	10 μM migalastat α-Gal A activity [nmol/mg/h]
B1	31357 ± 1408
B2	29082 ± 1980
B3	22124 ± 1885
B4	16396 ± 1516
B5	23219 ± 2640
B6	3019 ± 210
B7	27922 ± 1578
B8	21231 ± 2136
B9	26457 ± 2512
B10	6279 ± 288
B11	19647 ± 3137
B12	10052 ± 825
B13	24298 ± 3201
B14	27775 ± 1478
B15	1397 ± 86
B16	19117 ± 2241
B17	22948 ± 1321
B18	26241 ± 1907
B19	14720 ± 616
B20	8468 ± 832
B21	36486 ± 1952

— patent publication US11833164B2, “Methods of treating Fabry disease in patients having a mutation in the GLA gene” (Amicus Therapeutics, Inc., priority 2019, dated 2023)
